From patent US20220002423A1 (GENERAL HOSPITAL, published 2022)

Assays:
[1] = molecular target: Full-length human TNFR2 (human) (UniProt P20333); test: ELISA; categorical score, 0 lowest to 4 highest affinity
[2] = molecular target: T1, Amino acid residues 106-125 of human TNFR2 (human); test: ELISA on TNFR2 peptide fragment; categorical score, 0 lowest to 4 highest affinity
T1 sequence (peptide): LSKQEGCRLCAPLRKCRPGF

[3] = molecular target: T2, Amino acid residues 108-127 of human TNFR2 (human); test: as above
T2 sequence (peptide): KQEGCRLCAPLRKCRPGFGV

[4] = molecular target: T3, Amino acid residues 26-45 of human TNFR2 (human); test: as above
T3 sequence (peptide): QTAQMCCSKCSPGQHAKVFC

[5] = molecular target: T4, Amino acid residues 34-53 of human TNFR2 (human); test: as above
T4 sequence (peptide): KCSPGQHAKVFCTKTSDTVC

[6] = molecular target: T5, Amino acid residues 98-117 of human TNFR2 (human); test: as above
T5 sequence (peptide): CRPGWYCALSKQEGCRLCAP

[7] = molecular target: T1, Amino acid residues 106-125 of human TNFR2 (human); test: ELISA, coated linear peptides 1 µg/well, antibody 0.1 µg/well
[8] = molecular target: T2, Amino acid residues 108-127 of human TNFR2 (human); test: as above
[9] = molecular target: T3, Amino acid residues 26-45 of human TNFR2 (human); test: as above
[10] = molecular target: T5, Amino acid residues 98-117 of human TNFR2 (human); test: as above
[11] = molecular target: T6, Amino acid residues 58-77 of human TNFR2 (human); test: ELISA on TNFR2 peptide fragment; categorical score, 0 lowest to 4 highest affinity
T6 peptide: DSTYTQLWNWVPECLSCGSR

[12] = molecular target: T7, Amino acid residues 66-85 of human TNFR2 (human); test: as above
T7 peptide: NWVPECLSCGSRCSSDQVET

[13] = molecular target: T8, Amino acid residues 74-93 of human TNFR2 (human); test: as above
T8 peptide: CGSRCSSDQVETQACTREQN

[14] = molecular target: T9, Amino acid residues 82-101 of human TNFR2 (human); test: as above
T9 peptide: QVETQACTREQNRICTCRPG

[15] = molecular target: T10, Amino acid residues 90-109 of human TNFR2 (human); test: as above
T10 peptide: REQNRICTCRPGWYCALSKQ

[16] = molecular target: T11, Amino acid residues 114-133 of human TNFR2 (human); test: as above
T11 peptide: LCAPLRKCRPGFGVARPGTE

[17] = molecular target: T12, Amino acid residues 122-141 of human TNFR2 (human); test: as above
T12 peptide: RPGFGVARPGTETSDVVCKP

[18] = molecular target: T13, Amino acid residues 130-149 of human TNFR2 (human); test: as above
T13 peptide: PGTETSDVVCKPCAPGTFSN

[19] = molecular target: T14, Amino acid residues 138-157 of human TNFR2 (human); test: as above
T14 peptide: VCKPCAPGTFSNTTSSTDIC

[20] = molecular target: T15, Amino acid residues 146-165 of human TNFR2 (human); test: as above
T15 peptide: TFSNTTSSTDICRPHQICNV

[21] = molecular target: T16, Amino acid residues 154-174 of human TNFR2 (human); test: as above
T16 peptide: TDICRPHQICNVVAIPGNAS

[22] = molecular target: T17, Amino acid residues 162-181 of human TNFR2 (human); test: as above
T17 peptide: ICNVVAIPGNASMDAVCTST

[23] = molecular target: T18, Amino acid residues 170-189 of human TNFR2 (human); test: as above
T18 peptide: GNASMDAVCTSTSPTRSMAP

[24] = molecular target: T19, Amino acid residues 1-20 of human TNFR2 (human); test: as above
T19 construct: 20-mer fragment
T19 peptide: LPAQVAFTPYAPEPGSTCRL

[25] = molecular target: T20, Amino acid residues 9-28 of human TNFR2 (human); test: as above
T20 peptide: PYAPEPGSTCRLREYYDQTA

[26] = molecular target: T21, Amino acid residues 17-36 of human TNFR2 (human); test: as above
T21 peptide: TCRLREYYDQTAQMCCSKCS

[27] = molecular target: T22, Amino acid residues 42-61 of human TNFR2 (human); test: as above
T22 peptide: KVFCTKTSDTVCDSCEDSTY

[28] = molecular target: T23, Amino acid residues 50-69 of human TNFR2 (human); test: as above
T23 peptide: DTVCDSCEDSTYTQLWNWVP

- Affinity Score [1]: 4
- Affinity Score [2]: 2
- Affinity Score [3]: 2
- Affinity Score [4]: 1
- Affinity Score [5]: 0
- Affinity Score [6]: 1
- Affinity [7]: 2
- Reading [7]: 0
- Affinity [8]: 2
- Reading [8]: 0
- Affinity [9]: 1
- Reading [9]: 0
- Affinity [10]: 1
- Reading [10]: 0
- Affinity Score [11]: 0
- Affinity Score [12]: 0
- Affinity Score [13]: 0
- Affinity Score [14]: 0
- Affinity Score [15]: 2
- Affinity Score [16]: 0
- Affinity Score [17]: 0
- Affinity Score [18]: 0
- Affinity Score [19]: 0
- Affinity Score [20]: 0
- Affinity Score [21]: 0
- Affinity Score [22]: 0
- Affinity Score [23]: 0
- Affinity Score [24]: 0
- Affinity Score [25]: 0
- Affinity Score [26]: 0
- Affinity Score [27]: 0
- Affinity Score [28]: 0
B1: agonistic TNFR2 antibody TNFRAG1 (antibody, V domains shown)
VH: EVQLQQFGAELVKPGASVKISCKASGYTFTDYNIDWVKQSHGKSLEWIGDINPNYDSTSYSQKFRGKATLTVDKSSSTAYMELRSLTSEDTAVYYCARGNSWYFDVWGAGTTVTVSS
VL: QIVLTQSPALMSASPGEKVTMTCSASSSVRYMYWYQQKPRSSPKPWIYLTSNLASGVPARFSGSGSGTSYSLTISSMEAEDAATYYCQQWSSNPLTFGAGTKLELK
notes: the primary antibodies were detected with secondary antibodies against rodent IgG; also called monoclonal TNFR2 antibody TNFRAG1; TNFR2 agonist antibody
